Source: patent US20160237160A1 (Bayer, published 2016)

T1: TPP-1984 (hTNFRSF12Aaa28-68-CT-His) (human)
T1 construct: monomeric ectodomain with HIS6 tag; also called TWEAKR(28-68)-HIS; C-terminally truncated TWEAKR ectodomain
T1 chain: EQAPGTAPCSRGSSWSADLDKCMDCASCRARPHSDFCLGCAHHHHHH


Key:
[1] = biological target: T2, TWEAKR (TNFRSF12A, FN14), human, on tumor cell lines (human, UniProt Q9NP84 28-129); test: FACS, HT29 cells, 10 ug/ml
T2 construct: endogenous receptor on human cancer cell lines; also called TWEAK receptor; CD266
Description: (§1) To determine the binding characteristics of the anti-TWEAKR antibodies on mouse and human cancer cell lines, binding was tested by flow cytometry to a panel of cell lines. […] Cells were suspended at approximately 10⁵ cells/well in FACS buffer (PBS without Ca/Mg, containing 3% FCS, Biochrom). Cells were centrifuged (250 g, 5 min, 4° C.) and supernatant discarded. Cells were resuspended in dilutions of the antibodies of interest (10 μg/ml in 80 μl if not indicated otherwise) in FACS buffer, and incubated on ice for 1 h. […] After incubation for 1 h on ice cells were again washed with cold FACS buffer, resuspended in 1000 FACS buffer and analyzed by flow cytometry using a FACS-Array (BD Biosciences). Results are calculated as Geo Mean of fluorescence detected by the antibody of interest subtracted by background fluorescence as measured by detection with the secondary antibody alone. Values are scored according to the following system: Geo Mean−Geo Mean of secondary antibody alone >10: +, >100: ++, >1000: +++, 10000: ++++, close to category border in ( ).

[2] = biological target: T2, TWEAKR (TNFRSF12A, FN14), human, on …; test: FACS, 786-O cells, 10 ug/ml
Description: as §1

[3] = biological target: T3, TPP-2614 (TweakR-ECD-34-68-hIgGFc-His-D47A) (human); test: ELISA, IgG coated 1 ug/ml, TWEAKR variant 250 ng/ml, anti-HIS HRP (FIG. 6C)
T3 construct: also called D47A TWEAKR mutein
Description: Antibodies were coated (1 μg/ml), TWEAKR variant was added at 250 ng/ml, detection via anti-HIS HRP. […] Antibodies were coated (1 μg/ml), TWEAKR variant was added 250 ng/ml, detection via anti-HIS HRP.

[4] = biological target: T4, TPP-1777 (DOG-TNFRSF12Aaa28-80-hIgG1-Fc) (dog); test: SPR, TWEAKR-Fc immobilized, IgG injected, bivalent analyte model (avidity mode);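 note: kd derived as the ratio of fitted dissociation to association rate constants, with sensorgrams corrected against a reference flow cell and a buffer blank before fitting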
T4 construct: bivalent antigen; also called dog TWEAKR Fc
Description: (§2) Sensorgrams were generated after in-line reference cell correction followed by buffer sample subtraction. The dissociation equilibrium constant (KD) was calculated based on the ratio of association (kₒₙ₁) and dissociation rated (koff1) constants, obtained by fitting sensorgrams with a bivalent analyte model using Biavaluation Software (version 4.0).

[5] = biological target: T5, TPP-599 (HUMAN-TNFRSF12Aaa28-80-hIgG1-Fc) (human); test: as above
T5 construct: dimeric; also called human TWEAKR Fc; TWEAKR-Fc
Description: as §2

[6] = biological target: T6, TPP-1779 (RAT-TNFRSF12Aaa28-80-hIgG1-Fc) (rat); test: as above
T6 construct: bivalent antigen; also called rat TWEAKR Fc
Description: as §2

[7] = biological target: T7, TPP-1778 (PIG-TNFRSF12Aaa28-80-hIgG1-Fc) (pig); test: as above
T7 construct: bivalent antigen; also called pig TWEAKR Fc
Description: as §2

[8] = biological target: T8, TPP-1846 (MAC-TNFRSF12Aaa28-80-hIgG1-Fc) (macaca fascicularis); test: as above
T8 construct: bivalent antigen; also called mac fasc TWEAKR Fc
Description: as §2

[9] = biological target: T9, TPP-601 (MURINE-TNFRSF12Aaa28-80-hIgG1-Fc) (murine); test: as above
T9 construct: dimeric; also called murine TWEAKR Fc
Description: as §2

[10] = biological target: T2, TWEAKR (TNFRSF12A, FN14), human, on …; test: cell-based or functional assay
[11] = biological target: T10, TPP-2305 (hTNFRSF12Aaa28-80) (Human, UniProt Q9NP84 28-80); test: SPR (Biacore T100), IgG captured, TPP-2305 injected, 1:1 model
T10 construct: monomeric extracellular domain, bought; also called purified recombinant human TWEAKR protein; soluble monomeric TWEAKR
Description: Binding affinities of anti-TWEAKR antibodies were determined by surface plasmon resonance analysis on a Biacore T100 instrument (GE Healthcare Biacore, Inc.). Antibodies were immobilized onto a CM5 sensor chip through an indirect capturing reagent, anti-human IgG(Fc). […] Anti-TWEAKR antibodies were injected at a concentration of 10 μg/ml at 10 μl/min for 10 sec.
Sensorgrams were generated after in-line reference cell correction followed by buffer sample subtraction. The dissociation equilibrium constant (KD) was calculated based on the ratio of association (kₒₙ) and dissociation rated (koff) constants, obtained by fitting sensorgrams with a first order 1:1 binding model.

[12] = biological target: T2, TWEAKR (TNFRSF12A, FN14), human, on …; test: FACS, A375 cells, 10 ug/ml
Description: as §1

[13] = biological target: T2, TWEAKR (TNFRSF12A, FN14), human, on …; test: FACS, WiDr cells, 10 ug/ml
Description: as §1

[14] = biological target: T2, TWEAKR (TNFRSF12A, FN14), human, on …; test: FACS, SKOV-3 cells, 10 ug/ml
Description: as §1

[15] = biological target: T11, TPP-2202 (TWEAKR-ECD-28-80-hIgGFc-His) (human); test: ELISA, TPP-2202 coated at 1 µg/ml, biotinylated IgG at 0.08 µg/ml (open bar) and 0.3 µg/ml (filled bar), Streptavidin-HRP, Amplex Red
T11 construct: dimeric; also called TWEAKR-Fc fusion protein; full ectodomain 28-80
Description: (§3) Detection was done with Streptavidin-HRP and Amplex-Red substrate.
(§4) To analyze for binding, 1 μg/ml of the respective dimeric TWEAKR-Fc construct were coated and, 0.3 μg/ml and 0.08 μg/ml of biotinylated IgG were used as soluble binding partner. Detection was done with Streptavidin-HRP and Amplex-Red substrate.

[16] = biological target: T2, TWEAKR (TNFRSF12A, FN14), human, on …; test: cell-based or functional assay; remark: listed apart in the source
[17] = biological target: T2, TWEAKR (TNFRSF12A, FN14), human, on …; test: FACS, NCI-H322 cells, 10 ug/ml
Description: as §1

[18] = biological target: TPP-1988 (hTNFRSF12Aaa28-80-M50A-hIgG1-Fc) (human); test: ELISA, TWEAKR-Fc coated 62 ng/ml, biotin-IgG titrated; + means IC50 1 to 150 pM;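 note: biotinylated IgG binding to immobilized TWEAKR-Fc muteins, detected with Streptavidin-HRP and Amplex Red, IC50 derived from fitted dose-response curves of twofold serial dilutions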
Description: (§5) To collect dose-response data, the different TWEAKR-Fc muteins were coated with a low concentration (62 ng/ml) in a 384-well Maxisorb ELISA plate and a serial 2fold dilution of biotinylated IgG starting with a concentration of 100 nM was used as soluble binding partner. Detection was done with Streptavidin-HRP and Amplex Red.
(§6) The dose-response data were fitted and IC50s determined.

[19] = biological target: TPP-1986 (hTNFRSF12Aaa28-80-T33Q-hIgG1-Fc) (human); test: as above
Description: as §5, §6

[20] = biological target: TPP-1990 (hTNFRSF12Aaa28-80-L65Q-hIgG1-Fc) (human); test: as above
Description: as §5, §6

[21] = biological target: TPP-2683 (hTNFRSF12Aaa28-80-R56P-hIgG1-Fc) (human); test: as above
Description: as §5, §6

[22] = biological target: TPP-1989 (hTNFRSF12Aaa28-80-H60K-hIgG1-Fc) (human); test: as above
Description: as §5, §6

[23] = biological target: TPP-1987 (hTNFRSF12Aaa28-80-S40R-hIgG1-Fc) (human); test: as above
Description: as §5, §6

[24] = biological target: T1, TPP-1984 (hTNFRSF12Aaa28-68-CT-His); test: ELISA, TPP-1984 coated at 1 µg/ml, biotinylated IgG at 0.08 µg/ml (open bar) and 0.3 µg/ml (filled bar), Streptavidin-HRP, Amplex Red
Description: as §3, §4

[25] = biological target: T12, TPP-2203 (TWEAKR-ECD-34-68-hIgGFc-His) (human); test: ELISA, TPP-2203 coated at 1 µg/ml, biotinylated IgG at 0.08 µg/ml (open bar) and 0.3 µg/ml (filled bar), Streptavidin-HRP, Amplex Red
T12 construct: dimeric; also called TWEAKR(34-68)-Fc fusion protein; truncated ectodomain 34-68
Description: as §3, §4

[26] = biological target: T2, TWEAKR (TNFRSF12A, FN14), human, on …; test: cell-based or functional assay; remark: listed apart in the source
[27] = biological target: T5, TPP-599 …; test: ELISA, 2.5 nM biotinylated TWEAKR-Fc coated, soluble Fab, anti-c-Myc detection
[28] = biological target: T5, TPP-599 …; test: ELISA, TWEAKR-Fc coated 62 ng/ml, biotin-IgG titrated; + means IC50 1 to 150 pM;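 note: biotinylated IgG binding to immobilized TWEAKR-Fc muteins, detected with Streptavidin-HRP and Amplex Red, IC50 derived from fitted dose-response curves of twofold serial dilutions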
Description: as §5, §6

Binder | GeoMean of Fluorescence minus GeoMean with the secondary antibody only [1] | GeoMean of Fluorescence minus GeoMean with the secondary antibody only [2] | % binding normalized by wt binding signal [3] | Kd [4] | Kd [5] | Kd [6] | Kd [7] | Kd [8] | Kd [9] | Fold induction of Caspase 3/7, 786-O cells, 100 ug/ml [10] | Fold induction of Caspase 3/7, HT-29 cells, 100 ug/ml [10] | Fold induction of Caspase 3/7, NCI-H322 cells, 100 ug/ml [10] | Kd [11] | koff [11] | kon [11] | GeoMean of Fluorescence minus GeoMean with the secondary antibody only [12] | GeoMean of Fluorescence minus GeoMean with the secondary antibody only [13] | GeoMean of Fluorescence minus GeoMean with the secondary antibody only [14] | binding result [15] | IL-8 release from A375 cells at 100 ug/ml, % of the activation by 300 ng/ml TWEAK ligand [16] | other results
TPP-2084 (antibody, human IgG1, kappa, V domains shown, Human IgG1) VH: EVQLLESGGGLVQPGGSLRLSCAASGFTFSPYPMMWVRQAPGKGLEWVSYISPSGGSTHYADSVKGRFTISRDNSKNTLYLQMNSLRAEDTAVYYCARGGDTYFDYFDYWGQGTLVTVSS VL: not shown | 750 | 16300 | < 5% | 17 nM | 16.2 nM | 21.1 nM | 34.2 nM | 23.8 nM | 4 nM | 1.61 fold | 2.59 fold | 1.58 fold | 27.6 nM | 0.11 s⁻¹ | 4.2e+06 M⁻¹ s⁻¹ | 199 | 1350 | 1660 | binds | 113% | Fold induction of Caspase 3/7, A253 cells, 100 ug/ml [10]: 1.6 fold; GeoMean of Fluorescence minus GeoMean with the secondary antibody only [17]: 126; binding result [18]: binds; binding result [19]: binds; binding result [20]: binds; binding result [21]: binds; binding result [22]: binds; binding result [23]: binds; binding result [24]: binds; binding result [25]: binds; % Inhibition of proliferation, 786-O cells, 96h, 100 ug/ml [26]: 68%; % Inhibition of proliferation, A253 cells, 72h, 100 ug/ml [26]: > 100%; % Inhibition of proliferation, HT-29 cells, 24h, 100 ug/ml [26]: 98%; % Inhibition of proliferation, WiDr cells, 96h, 100 ug/ml [26]: 52%
TPP-883 Fab variant A51Q of CDR-L2 (Fab, V domains shown) VH: EVQLLESGGGLVQPGGSLRLSCAASGFTFSPYPMMWVRQAPGKGLEWVSYISPSGGKTHYADSVKGRFTISRDNSKNTLYLQMNSLRAEDTAVYYCARGGDGYFDYFDYWGQGTLVTVSS VL: DIQMTQSPATLSASVGDRVTITCRASQSISSYLNWYQQKPGKAPKLLIYQASSLQSGVPSRFSGSGSGTDFTLTISSLQPEDFATYYCQQSYSSPGITFGPGTKVEIK | – | – | – | – | – | – | – | – | – | – | – | – | – | – | – | – | – | – | – | – | binding result [27]: binds
TPP-2077 (antibody, human IgG1, kappa, Human IgG1) heavy: not shown light: DIQMTQSPATLSASVGDRVTITCRASQSISSYLNWYQQKPGKAPKLLIYAASSLQSGVPSRFSGSGSGTDFTLTISSLQPEDFATYYCQQSYSSPGITFGPGTKVEIKRTVAAPSVFIFPPSDEQLKSGTASVVCLLNNFYPREAKVQWKVDNALQSGNSQESVTEQDSKDSTYSLSSTLTLSKADYEKHKLYACEVTHQGLSSPVTKSFNRGEC | – | – | < 5% | 24.5 nM | 10.3 nM | 21.2 nM | 22.4 nM | 16.8 nM | 4.2 nM | – | – | – | 28.9 nM | 0.086 s⁻¹ | 3e+06 M⁻¹ s⁻¹ | – | – | – | – | – | –
TPP-1538 (antibody, human IgG1, kappa, Human IgG1) heavy: not shown light: AQDIQMTQSPATLSASVGDRVTITCRASQSISSYLNWYQQKPGKAPKLLIYAASSLQSGVPSRFSGSGSGTDFTLTISSLQPEDFATYYCQQSYSSPGITFGPGTKVEIKRTVAAPSVFIFPPSDEQLKSGTASVVCLLNNFYPREAKVQWKVDNALQSGNSQESVTEQDSKDSTYSLSSTLTLSKADYEKHKLYACEVTHQGLSSPVTKSFNRGEC | 634 | 17500 | < 5% | 25 nM | 15.4 nM | 20.4 nM | 22.7 nM | 21.1 nM | 4.7 nM | 1.81 fold | 2.44 fold | 1.49 fold | 27.6 nM | 0.11 s⁻¹ | 4.2e+06 M⁻¹ s⁻¹ | 229 | 1190 | 1630 | – | 134% | Fold induction of Caspase 3/7, WiDr cells, 100 ug/ml [10]: 1.53 fold; GeoMean of Fluorescence minus GeoMean with the secondary antibody only [17]: 98; % Inhibition of proliferation, 786-O cells, 96h, 100 ug/ml [26]: 75%; % Inhibition of proliferation, A253 cells, 72h, 100 ug/ml [26]: > 100%; % Inhibition of proliferation, HT-29 cells, 24h, 100 ug/ml [26]: 97%; % Inhibition of proliferation, WiDr cells, 96h, 100 ug/ml [26]: 55%
136.1(TPP-2194) (antibody, mouse IgG2a, kappa, V domains shown, Murine IgG2a; variable domains from WO2009/020933 with constant region added) VH: EVKLEESGGGLVQPGGSMKLSCVASGFTFNNYWMSWVRQSPEKGLEWLAEIRLKSDNYATHYAESVKGKFTISRDDSKSRLYLQMNNLRAENTGIYYCTGGFADYFDYWGQGTTLTVSS VL: DIVLTQSPASLTVSLGQRATISCRASQSVSTSSYSYMQWYQQRPGQPPKLLIKYATNLDSGVPARFSGSGSGTDFTLNIHPVEEEDAATYYCQHSWEIPYTFGGGTKLEIKR | – | – | – | – | – | – | – | – | – | – | 1.81 fold | – | 0.8 nM | 0.0324 s⁻¹ | 3.84e+07 M⁻¹ s⁻¹ | – | – | – | binds | 93% | binding result [18]: binds; binding result [19]: binds; binding result [28]: binds; binding result [20]: binds; binding result [22]: binds; binding result [23]: binds; binding result [24]: binds; binding result [25]: binds
